Assay results from article PMC5986104.

Target: NOTCH2-Myc (human) (UniProt Q04721)
Sequence of UniProt Q04721 (Q04721 26-2471): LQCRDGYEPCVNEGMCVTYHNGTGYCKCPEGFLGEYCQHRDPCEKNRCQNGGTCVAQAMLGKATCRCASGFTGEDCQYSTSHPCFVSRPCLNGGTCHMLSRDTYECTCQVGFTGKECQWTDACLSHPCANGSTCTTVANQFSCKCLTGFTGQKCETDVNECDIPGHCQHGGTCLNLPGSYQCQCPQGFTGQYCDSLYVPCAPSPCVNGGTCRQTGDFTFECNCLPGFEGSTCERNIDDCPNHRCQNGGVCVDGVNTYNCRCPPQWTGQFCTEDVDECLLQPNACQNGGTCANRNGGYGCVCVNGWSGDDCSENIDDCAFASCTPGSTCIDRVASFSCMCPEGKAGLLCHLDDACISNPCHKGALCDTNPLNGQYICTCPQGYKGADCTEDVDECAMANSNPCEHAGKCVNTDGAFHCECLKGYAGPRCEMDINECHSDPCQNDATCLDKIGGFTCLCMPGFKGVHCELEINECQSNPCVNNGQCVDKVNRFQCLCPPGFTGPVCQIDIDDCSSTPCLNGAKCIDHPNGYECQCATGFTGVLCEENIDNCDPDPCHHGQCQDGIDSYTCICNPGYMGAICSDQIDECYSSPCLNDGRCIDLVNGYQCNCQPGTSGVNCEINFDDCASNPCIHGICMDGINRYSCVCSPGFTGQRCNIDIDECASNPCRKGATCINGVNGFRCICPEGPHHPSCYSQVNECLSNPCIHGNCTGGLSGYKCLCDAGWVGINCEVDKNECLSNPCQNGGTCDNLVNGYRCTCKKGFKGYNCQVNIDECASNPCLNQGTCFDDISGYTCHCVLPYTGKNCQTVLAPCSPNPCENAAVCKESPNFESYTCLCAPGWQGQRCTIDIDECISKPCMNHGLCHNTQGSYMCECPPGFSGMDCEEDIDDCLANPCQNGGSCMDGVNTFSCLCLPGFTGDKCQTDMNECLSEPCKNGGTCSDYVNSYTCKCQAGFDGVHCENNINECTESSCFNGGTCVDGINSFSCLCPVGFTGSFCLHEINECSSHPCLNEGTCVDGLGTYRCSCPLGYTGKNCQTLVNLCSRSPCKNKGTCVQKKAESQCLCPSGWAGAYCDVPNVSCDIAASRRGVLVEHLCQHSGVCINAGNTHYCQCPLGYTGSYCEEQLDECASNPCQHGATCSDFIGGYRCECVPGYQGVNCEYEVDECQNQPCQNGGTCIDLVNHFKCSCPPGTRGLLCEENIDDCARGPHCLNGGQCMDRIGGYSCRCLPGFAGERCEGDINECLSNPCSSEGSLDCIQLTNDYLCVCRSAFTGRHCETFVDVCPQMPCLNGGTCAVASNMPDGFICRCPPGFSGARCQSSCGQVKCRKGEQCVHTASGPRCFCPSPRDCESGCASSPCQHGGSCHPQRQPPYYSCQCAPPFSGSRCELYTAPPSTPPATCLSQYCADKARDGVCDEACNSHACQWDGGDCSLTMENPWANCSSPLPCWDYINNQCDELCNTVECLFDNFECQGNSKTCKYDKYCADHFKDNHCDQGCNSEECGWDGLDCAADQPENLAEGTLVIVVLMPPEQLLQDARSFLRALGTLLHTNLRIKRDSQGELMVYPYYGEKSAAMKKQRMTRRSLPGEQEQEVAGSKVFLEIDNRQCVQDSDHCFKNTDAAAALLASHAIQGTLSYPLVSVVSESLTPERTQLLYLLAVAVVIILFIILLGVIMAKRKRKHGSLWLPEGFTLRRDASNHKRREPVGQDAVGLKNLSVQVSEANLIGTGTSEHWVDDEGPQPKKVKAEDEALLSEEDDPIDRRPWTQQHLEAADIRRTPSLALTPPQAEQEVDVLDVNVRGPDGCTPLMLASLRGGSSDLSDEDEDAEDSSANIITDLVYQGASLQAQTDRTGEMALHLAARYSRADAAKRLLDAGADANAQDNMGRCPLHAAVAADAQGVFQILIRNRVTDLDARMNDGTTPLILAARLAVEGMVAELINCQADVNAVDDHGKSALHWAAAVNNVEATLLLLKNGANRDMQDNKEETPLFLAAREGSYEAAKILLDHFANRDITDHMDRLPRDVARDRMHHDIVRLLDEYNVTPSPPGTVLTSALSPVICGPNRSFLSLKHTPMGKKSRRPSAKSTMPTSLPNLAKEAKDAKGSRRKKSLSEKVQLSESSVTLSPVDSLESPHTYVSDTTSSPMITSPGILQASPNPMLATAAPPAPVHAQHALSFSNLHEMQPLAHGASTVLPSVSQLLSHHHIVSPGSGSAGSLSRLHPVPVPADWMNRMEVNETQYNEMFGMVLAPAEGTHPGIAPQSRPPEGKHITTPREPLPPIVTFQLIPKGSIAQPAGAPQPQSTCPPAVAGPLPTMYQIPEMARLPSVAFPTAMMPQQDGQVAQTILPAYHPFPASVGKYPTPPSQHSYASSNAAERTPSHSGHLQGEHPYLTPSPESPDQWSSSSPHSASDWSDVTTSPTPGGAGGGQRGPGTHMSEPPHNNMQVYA

Substance	NOTCH2-GAL4 reporter activation under baseline conditions, increase (Figure 6J)	NOTCH2-GAL4 reporter activation under baseline conditions, increase (Figure 6H)	NOTCH2-GAL4 reporter activation with JAG2 co-culture, increase (Figure 6I)
NOTCH2NL^L (from UniProt P0DPK3 26-275) (natural protein)	21%		
NOTCH2NL-HA^L,T197I (from UniProt P0DPK3 26-275) (natural protein)	63%		
NOTCH2NL^Sh,T197I (natural protein)		31%	53%
